# ± gives the uncertainty stated by the source.
# Assay: protein stability index of a GFP-peptide fusion (yeast GPS) (PSI 1-4); higher = more stable; sorted into four equal gates, so the index is relative within each strain
# Details: pdr5∆
# Outline: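 Each library plasmid carries Cherry plus GFP with a tiled 17-residue yeast protein peptide fused downstream, and the pooled library was carried in yeast. Mid-log cultures in leucine-free medium were sorted into four equal gates by GFP/Cherry ratio. Reads from Illumina sequencing of PCR-amplified plasmids from each gate were assigned to strains by barcodes. Per peptide, the protein stability index was computed as the summed products of gate read frequency and gate number.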
row,Sequence,protein stability index
1,HTEDEQIEKKKICRGRM [SIR4],3.38 ± 0.12

# Same assay, conditions: san1∆
row,Sequence,protein stability index
1,GKNVINRERFISKLFLR [SMD2],1.73 ± 0.14
2,GKPHFSLLGGFDENIAR [PCI8],3.25 ± 0.095
3,GKRIAYVYRASKEVRGS [RPL33A],2.43 ± 0.064
4,GKRQVLIRPSSKVIIKF [RPS22A],2.78 ± 0.057
5,GKTIVVKDLGQGLKLAK [SMC3],2.45 ± 0.16
6,GLFGANSNSNSGSLFGS [YGL172W/NUP49],1.05 ± 0.25
7,GLGMISASHILIPASDL [PRP8],1.75 ± 0.06
8,GLGVLTHRNKDGTGVRV [FAS1],3.58 ± 0.082
9,GLHKFVKGDLLQEAIDF [PRE10],3.09 ± 0.082
10,GLIAARRTGLLRGSQKT [RPL2A],2.88 ± 0.11
11,GLKYALATGNWGEQKKA [RPB2],3.01 ± 0.082
12,GLRVRGQHTKTTGRRRA [RPS18A],2.21 ± 0.068
13,GLSLAGLAPDARVLSNY [PRE5],1.27 ± 0.24
14,GLSQTEAFGNIKIDAKP [MCD1],1.77 ± 0.2
15,GLTLSTTNLDIDLLTFQ [RPP1],3.16 ± 0.056
16,GLVNHRVGVKLKFNSTE [SMX3],1.94 ± 0.056
17,GNGEGLGGDSDEANIEI [BRN1],2.95 ± 0.17
18,GNILDFNLNLPPSSFGR [REC8],3.03 ± 0.055
19,GNIVAELAQDPQTMEHY [YCS4],3.44 ± 0.16
20,GNLIGVDPFDSDEEESV [SNU114],3 ± 0.057
21,GNVVMDIGKGAETTFLQ [RPC53],3.02 ± 0.22
22,GPAAAIEFEYDPWNKLK [RPB3],3.05 ± 0.052
23,GPSVESYELRNTTTYKS [SNF5],2.41 ± 0.094
24,GQCRPISKTVRFNVVKV [RPS11A],2.76 ± 0.097
25,GQGYRKVGIWPYFDYIF [YJL039C/NUP192],3.03 ± 0.12
26,GQPVNDFIDTATRHVLM [RPS3],3.1 ± 0.051

row,Sequence,protein stability index
1,GQSAGKLAAIVEIIDQK [RPL14A],2.82 ± 0.11
2,GRDTTDYLKNIIVENSG [RPN2],3.34 ± 0.12
3,GRHHQEEELFQEMIEIS [SRP54],3.41 ± 0.038
4,GRILQNLLHSYMEKGTQ [YML103C/NUP188],1.96 ± 0.086
5,GRLDRKIEFPLPSEDSR [RPT5],2.71 ± 0.24
6,GRNGSNGNDESSEYETI [NUT1],3.09 ± 0.086
7,GRPQRKMMSFQANPTEE [RPB5],3.44 ± 0.094
8,GRQFCNRLSRIHLYMLT [YLR018C/POM34],1.69 ± 0.1
9,GRRWNELRRFESSINTH [SKI6],2.01 ± 0.13
10,GRSWDGKEHIVAALVSL [ECM29],1.56 ± 0.082
11,GRVTFIPLNRLSLDSDV [SMC3],2.85 ± 0.063
12,GRYMEALALYVDAYRRL [SRP68],1.85 ± 0.15
13,GSELVQKYVGEGARMVR [RPT1],3 ± 0.085
14,GSESDDSEGSIKQTSDE [ECM29],3.32 ± 0.068
15,GSGLLKLSEIILNINNS [SWI1],2.4 ± 0.098
16,GSIGSRKYSFNYSSLPS [YAR002W/NUP60],2.12 ± 0.081
17,GSLKLPNCPRPNMSICI [RPL1A],2.95 ± 0.065
18,GSMTKTWYVGNSRGKFD [SSN2],3.08 ± 0.24
19,GSRMVRELFVMAREHAP [RPT6],1.09 ± 0.27
20,GSRVLIFSQMSRLLDIL [ISW2],3.18 ± 0.11
21,GTISKLENKENGLLNEI [SMC2],3.36 ± 0.1
22,GTLEYGTCFGGSKLEDM [RET1],3.36 ± 0.061
23,GTNAMLPSPESLKTKLN [SNF5],2.19 ± 0.046
24,GTNNARLAQLLRQLASY [RPN1],3.21 ± 0.097
25,GTPEATKGMITNLQRNV [NUT2],2.94 ± 0.15
26,GTPLFTFGKKADVTSNI [YOR098C/NUP1],1.51 ± 0.11

row,Sequence,protein stability index
1,GTPLLEVRGQVPVIESA [SNU114],2.06 ± 0.093
2,GTPLQNNLHELWALLNF [ISW2],2.35 ± 0.05
3,GVDNLRRMGILKKILDQ [RPO31],2.4 ± 0.083
4,GVEVRVTPTKTEVIIRA [RPS3],2.55 ± 0.071
5,GVIIKVEESGEHVILGN [SNU114],3.2 ± 0.14
6,GVKDCQEGLITTTMLQL [SSN2],2.74 ± 0.079
7,GVNGYIWLRKTSQMDLA [RRP4],3.07 ± 0.097
8,GVQSNGDQFLRYVNLLG [PRE4],2.17 ± 0.063
9,GVSLLALWKEKKEKPRS [RPS23A],2.21 ± 0.1
10,GVVVLRDREPKEPVALI [RPN2],3.45 ± 0.076
11,GVYSDDELLSQLDLCKL [SRP68],3.23 ± 0.043
12,GYCDDIAAMVAQKCGWT [SIR2],2.44 ± 0.16
13,GYDDFQEEGSFEFGNMK [FAS2],2.6 ± 0.28
14,GYDINYISKIGEKIDSN [SWI1],3.23 ± 0.084
15,GYLFKVSALDKCIKYSE [ECM29],1.95 ± 0.11
16,GYLITPPKHTELLLTTL [SSN2],1.54 ± 0.11
17,GYMQKPVYATIGVETGS [PRP28],1.68 ± 0.19
18,HADKDTFSSSISTYIST [POP8],2.41 ± 0.048
19,HAQSKREGRHSGYGKRK [RPL19A],2.85 ± 0.05
20,HARARGPRAVLTRQPTE [RET1],3.08 ± 0.065
21,HARGGGAISAVAATNTP [SRP54],3.07 ± 0.12
22,HCDKCSVVLTLQAFGES [RPB3],2.47 ± 0.19
23,HDIIEGINAGEIEIPEN [RPL12A],2.5 ± 0.077
24,HDISRYVRAKFLDYTTD [PRP8],1.83 ± 0.12
25,HDNHGNKLGNKRLTEDE [CDC53],2.37 ± 0.052
26,HEEDQKTNIIEKAMDYA [RPN12],2.37 ± 0.084

row,Sequence,protein stability index
1,HEIITVGPHFKQANNFL [RPL7A],2.98 ± 0.061
2,HEVEEILNELQPNARAL [SMC1],3.1 ± 0.099
3,HGILDDLETSLSQSSSY [MED2],3.12 ± 0.099
4,HGSIIILGMLSLADNEI [YCS4],2.05 ± 0.1
5,HGTYFLDNMTYSSVAGT [RRP4],2.45 ± 0.062
6,HGVLQGTSQNYGTATAD [MED1],2.96 ± 0.078
7,HHSWSQSDLEIITQYVF [ARP9],2.73 ± 0.056
8,HIEGVVILKKNPDYREE [RPN1],3.05 ± 0.079
9,HIKFSAGTEANAVSFDT [SRB4],2.66 ± 0.052
10,HIMEPCIECQPKAMTDT [HRT1],2.94 ± 0.11
11,HKMGVERSSKRLAKKPS [SIR3],3.24 ± 0.043
12,HKPNEGRTPNISNGTIN [SIR4],2.99 ± 0.056
13,HLEALQPLFSTVPEYLK [PGD1],1.66 ± 0.093
14,HLIFSNARIYNTEGSVV [SNF2],2.49 ± 0.19
15,HLKILASSNFPFLNETK [RPC82],2.51 ± 0.06
16,HLRKLLDGELDFDDFLK [RET1],2.81 ± 0.12
17,HLRVRVHPFHVLRINKM [RPL10],1.2 ± 0.087
18,HLVWMKGTNDEGTSISV [YCS4],1.9 ± 0.18
19,HNKLIQFGNACISLSGV [SSN2],2.73 ± 0.075
20,HNMKAYYKKFLIEPLPT [BRR2],1.18 ± 0.16
21,HPAHVMWSVARAGQRGY [RPL3],1.5 ± 0.13
22,HPIRVLMASVILDSLPS [YDL116W/NUP84],1.62 ± 0.056
23,HQGSGGSVMSASVEIVF [SMC3],2.4 ± 0.082
24,HRTIVIRRAYLHYIPKY [RPS11A],1.84 ± 0.07
